Here are results for five molecules from publication PMC4961446, “Dual Role of a Biosynthetic Enzyme, CysK, in Contact Dependent Growth Inhibition in Bacteria” (PLoS ONE, 2016).

The target of data set [1] is RelE (Escherichia coli) (UniProt P0C077). Conditions: cited from earlier work.
The target in data set [2] is SpoIISB (Bacillus subtilis) (UniProt O34800). The following applies: cited from earlier work.
Data set [3] has as its target CdiA-CT^536(H3193A) (Escherichia coli strain 536 (UPEC536)). Nature of the data set: AUC; sedimentation velocity, 40,000 rpm, 15°C, 20 mM HEPES pH 7.5, 250 mM NaCl; 10, 20 and 30 μM; c(s) model in SEDFIT; complexes mixed and incubated at 4°C for 1 h.
The target is the same in data set [4]. Nature of the data set: SPR; Biacore 3000, 30°C; CdiA-CT^(M) immobilized on CM5 chip (723 RU); 10 mM HEPES pH 7.5, 150 mM NaCl, 20 μl/min; analyte CdiI 5-40 nM (1:1 Langmuir model) or CysK 0.4-6.4 μM dimer. Background: In SPR one partner is held on a chip, and binding of the other changes the refractive index at the surface.
Data set [5] has as its target CdiA-CT^(M)/CysK complex (heterotetramer) (Escherichia coli strain 536 (UPEC536) | E. coli K12) (UniProt P0ABK5). Description: ITC; 30°C, 20 mM HEPES pH 7.5, 150 mM NaCl; CdiA-CT^(M) or its preformed complex in the sample cell, CdiI or CysK (dimer concentration) in the syringe; one-site model for CdiA-CT^(M)/CdiI, two binding site model where CysK is involved; apparent enthalpy. For orientation: ITC needs no label: the signal is the heat of the interaction.

Data set [6] deals with CdiA-CT^536(H3193A) (Escherichia coli strain 536 (UPEC536)). Described as above.
Data set [7] deals with CdiA-CT^(M)/CysK complex (heterotetramer) (Escherichia coli strain 536 (UPEC536) | E. coli K12) (UniProt P0ABK5). Description: SPR; Biacore 3000, 30°C; CdiA-CT^(M) immobilized on a separate CM5 chip (760 RU), first 0.6 μM CysK (dimer) passed over it to form the CdiA-CT^(M)/CysK complex, then CdiI injected at 2.5-40 nM; local fitting, separate ka/kd model.
Data set [8] concerns the target CdiA-CT^(M)/CdiI complex (heterodimer) (Escherichia coli strain 536 (UPEC536)). Nature of the data set: AUC; sedimentation velocity, 40,000 rpm, 15°C, 20 mM HEPES pH 7.5, 250 mM NaCl; 10, 20 and 30 μM; c(s) model in SEDFIT; complexes mixed and incubated at 4°C for 1 h. Conditions: scale: CysK chain per CdiA-CT^(M)/CdiI heterodimer.
The target is the same in data set [9]. Description: ITC; 30°C, 20 mM HEPES pH 7.5, 150 mM NaCl; CdiA-CT^(M) or its preformed complex in the sample cell, CdiI or CysK (dimer concentration) in the syringe; one-site model for CdiA-CT^(M)/CdiI, two binding site model where CysK is involved; apparent enthalpy.
Data set [10] deals with the molecule itself. Nature of the data set: AUC; sedimentation velocity, 40,000 rpm, 15°C, 20 mM HEPES pH 7.5, 250 mM NaCl; 10, 20 and 30 μM; c(s) model in SEDFIT; complexes mixed and incubated at 4°C for 1 h.
Data set [11] concerns the molecule itself. Nature of the data set: SEC; analytical SEC, Superdex 200 Increase 10/300 GL, 20 mM HEPES pH 7.5, 250 mM NaCl, ~15°C; samples 10, 20 and 30 μM; for complexes purified proteins mixed in varying molar ratios and incubated at 4°C for 1 h; fractions analysed by SDS-PAGE. Background: SEC sorts molecules by how far they enter the pores of the column.
Data set [12] deals with T1, CysK (Escherichia coli, UniProt P0ABK5).
T1 chain: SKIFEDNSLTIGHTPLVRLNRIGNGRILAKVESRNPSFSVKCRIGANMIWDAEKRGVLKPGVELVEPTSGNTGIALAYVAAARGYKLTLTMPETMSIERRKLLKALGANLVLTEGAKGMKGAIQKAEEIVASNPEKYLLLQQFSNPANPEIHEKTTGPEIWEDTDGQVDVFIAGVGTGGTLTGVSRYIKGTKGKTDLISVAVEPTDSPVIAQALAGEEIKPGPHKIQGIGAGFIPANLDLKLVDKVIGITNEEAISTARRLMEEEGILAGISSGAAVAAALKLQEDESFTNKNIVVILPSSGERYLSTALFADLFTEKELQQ
Nature of the data set: ITC.

Values joined by “and” are separate entries in the source; they are usually repeats but may differ in a detail not shown here. Equal entries are not always repeated.

CdiA-CT^(M)/CdiI complex (heterodimer) (Escherichia coli strain 536 (UPEC536)), sequence (Q0T964 whole entry, one chain of several): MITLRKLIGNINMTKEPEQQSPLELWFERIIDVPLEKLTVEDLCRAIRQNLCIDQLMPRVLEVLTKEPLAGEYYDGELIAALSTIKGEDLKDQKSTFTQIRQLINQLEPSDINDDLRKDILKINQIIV
SpoIISB (Bacillus subtilis), sequence (O34800 whole entry): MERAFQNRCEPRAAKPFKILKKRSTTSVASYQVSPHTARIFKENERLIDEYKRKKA
RelE (Escherichia coli), sequence (P0C077 whole entry): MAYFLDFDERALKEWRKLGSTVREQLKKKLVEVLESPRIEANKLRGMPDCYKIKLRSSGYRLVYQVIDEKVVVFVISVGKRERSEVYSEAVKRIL

In the case of RelB (from UniProt P0C079), in data set [1], the Kd is 0.33 nM.

For SpoIISA (from UniProt O34853), the Kd in [2] is 0.46 nM.

In turn, CdiI (natural protein) had a stoichiometry N (CdiI per CdiA-CT^(M) (1:1)) in data set [3] of 1. Besides, in [4], the Kd is 12.8 nM, the koff was found to be 0.065 s⁻¹ and the association rate constant (kon) was 5.1e+06 M⁻¹ s⁻¹. Moreover, in [5], the KD1, first site is 1.3 nM; the KD2, second site turned out to be 1.1 nM; the dH, first site was -26.7 kcal/mol; the dH, second site was -24.2 kcal/mol. Also, in data set [5], the stoichiometry N was 1.89. In data set [6], the Kd was determined as 26.4 nM, the dH was -29 kcal/mol and the stoichiometry N was determined as 0.993. Moreover, in data set [7], the Kd came out at 0.3 nM, the koff was determined as 0.0005 s⁻¹ and the kon is 1.5e+06 M⁻¹ s⁻¹.

B1: CysK (O-acetylserine sulfyhydrylase) (enzyme, E. coli K12, UniProt P0ABK5 1-323, looked up)
chain: MSKIFEDNSLTIGHTPLVRLNRIGNGRILAKVESRNPSFSVKCRIGANMIWDAEKRGVLKPGVELVEPTSGNTGIALAYVAAARGYKLTLTMPETMSIERRKLLKALGANLVLTEGAKGMKGAIQKAEEIVASNPEKYLLLQQFSNPANPEIHEKTTGPEIWEDTDGQVDVFIAGVGTGGTLTGVSRYIKGTKGKTDLISVAVEPTDSPVIAQALAGEEIKPGPHKIQGIGAGFIPANLDLKLVDKVIGITNEEAISTARRLMEEEGILAGISSGAAVAAALKLQEDESFTNKNIVVILPSSGERYLSTALFADLFTEKELQQ
notes: CysK (O-acetylserine sulfhydrylase), amplified from E. coli K12 genomic DNA, in pNIC28-Bsa4; Cloned between NcoI/XhoI of pNIC28-Bsa4; also called CysK dimer; source: E. coli BL21(DE3), purified (Co-NTA, gel filtration)
B1 came in with a stoichiometry N in data set [8] of 1. This molecule also displayed a stoichiometry N (CysK chain per CdiA-CT^(M) chain (2:2)) in data set [3] of 1. In data set [4], this molecule yielded a Kd of 32 nM, a koff of 0.00014 s⁻¹ and a kon of 6200 M⁻¹ s⁻¹. For the same molecule, in data set [9], the KD1, first site turned out to be 12 nM; the KD2, second site was 13.4 nM; the dH, first site was -11 kcal/mol; the dH, second site was -26.7 kcal/mol. In addition, the stoichiometry N in [9] is 0.512. In [6], the KD1, first site was found to be 79.3 nM; the KD2, second site is 89.2 nM; the dH, first site was -5.62 kcal/mol; the dH, second site was -20.2 kcal/mol. Besides, in [6], the stoichiometry N came to 0.494. Further, the “stoichiometry N” value in [10] is 2. Also, in [11], the “stoichiometry N” value turned out to be 2.

B2: CdiA-CT CT (protein)
chain: VENNALSLVARGCAVAAPCRTKVAEQLLEIGAKAGMAGLAGAAVKDMADRMTSDELEHLITLQMMGNDEITTKYLSSLHDKYGSGAASNPNIGKDLTDAEKVELGGSGSGTGTPPPSENDPKQQNEKTVDKLNQKQESAIKKIDNTIKNALKDHDIIGTLKDMDGKPVPKENGGYWDHMQEMQNTLRGLRNHADTLKNVNNPEAQAAYGRATDAINKIESALKGYGI
On to B2, for which, in data set [12], the Kd is 79.3 nM and 89.2 nM.

The term koff denotes the rate constant with which the complex falls apart. Broadly, the kon is the rate constant with which the complex forms. What is called stoichiometry N is a count of units in the complex or per binding partner.
